Measured values as given in patent US20180298401A1 (CORNELL UNIVERSITY, published 2018).

How the values were obtained:
[1] = target: T1, Large subunit (LSU) of Synechococcus elongatus PCC7942 Rubisco (Synechococcus elongatus PCC7942, UniProt Q31NB3 1-472); test: native PAGE with Coomassie stain and immunoblots
T1 construct: also called cyanobacterial LSU; Se LSU

[2] = target: T2, Rubisco from the cyanobacterium Synechococcus elongatus PCC7942 (hexadecameric holoenzyme of eight LSU and … (Synechococcus elongatus PCC7942, UniProt Q31NB3 1-472; Q31NB2 1-111); test: quantitative immunoblots of SeLSM35 leaf homogenates against purified protein standards
T2 construct: also called Se7942 Rubisco; cyanobacterial Rubisco
Text: SDS page, immunoblot and determination of CcmM35/Rubisco content. The crude leaf homogenates used in the carboxylase activity measurements were separated by SDS-PAGE using 4-20% polyacrylamide gradient gels (ThermoScientific, UK). For each sample, the same amount of protein, as determined by Bradford assay, was loaded onto the gel. After electrophoresis, the resolved proteins were transferred to a nitrocellulose membrane (Hybond-C Extra from GE Healthcare Life Sciences) using a western blot apparatus. The nitrocellulose membranes were immunoblotted using one of four primary polyclonal antibodies raised against: cyanobacterial (SePCC6301) Rubisco; tobaccoRubisco; the small subunit of tobacco Rubisco; and CcmM from Se PCC7942. The primary polyclonal antibody to detect CcmM35 was generated in rabbit with His-tagged CcmM58 protein purified from E. coli (Cambridge Research Biochemicals, UK) and used at a dilution of 1:500 in the immunoblots and from 1:500 to 1:2,000 for immunogold labelling, and was highly specific for CcmM (FIG. 2a). The primary antibodies were visualized by means of a secondary goat anti-rabbit peroxidase-conjugated antibody (Sigma). The absolute and relative content of Synechococcus Rubisco and CcmM35 in SeLSM35 leaves were determined using immunoblots with antibodies against CcmM and cyanobacterial Rubisco. […]

B1: Small subunit (SSU) of Synechococcus elongatus PCC7942 Rubisco (enzyme, UniProt Q31NB2 1-111, looked up)
chain: MSMKTLPKERRFETFSYLPPLSDRQIAAQIEYMIEQGFHPLIEFNEHSNPEEFYWTMWKLPLFDCKSPQQVLDEVRECRSEYGDCYIRVAGFDNIKQCQTVSFIVHRPGRY
notes: also called cyanobacterial SSU; Se-rbcS product
B1: binds [1].

B2: CcmM35, internal carboxysomal protein of Synechococcus elongatus PCC7942 (other, UniProt Q03513-2 1-324, looked up)
chain: MSAYNGQGRLSSEVITQVRSLLNQGYRIGTEHADKRRFRTSSWQPCAPIQSTNERQVLSELENCLSEHEGEYVRLLGIDTNTRSRVFEALIQRPDGSVPESLGSQPVAVASGGGRQSSYASVSGNLSAEVVNKVRNLLAQGYRIGTEHADKRRFRTSSWQSCAPIQSSNERQVLAELENCLSEHEGEYVRLLGIDTASRSRVFEALIQDPQGPVGSAKAAAAPVSSATPSSHSYTSNGSSSSDVAGQVRGLLAQGYRISAEVADKRRFQTSSWQSLPALSGQSEATVLPALESILQEHKGKYVRLIGIDPAARRRVAELLIQKP
notes: domain: CcmM35; CcmM35 lacks the amino-terminal domain; Untagged as expressed in the SeLSM35 tobacco line; also called Se-ccmM35 product
For B2, the “stoichiometry of CcmM35 per Rubisco holoenzyme” value [2] was ~4.5 CcmM35 per Rubisco holoenzyme.
